Assay results published in paper PMC9512702 (2022).
Like-named read-outs stand apart in the source and are kept apart here.

How the values were obtained:
[1] = molecular target: T1, mammalian expressed RBD (mRBD) of SARS-CoV-2 spike (SARS-CoV-2, UniProt P0DTC2 319-541); test: SPR
[2] = molecular target: T1, mammalian expressed RBD (mRBD) of …; test: SPR; remark: listed apart in the source

Binder | koff [1] [s⁻¹] | koff [2] [s⁻¹]
DKEWILQKIYEAMRLLDELADAEASMRVSDAIYEFMKK (designed binder) [SIH-14] | 0.00028 | 
DKEWILQKIYEEMRLLDELADAEASMRVSDEIYEFMKK (designed binder) [SIH-15] |  | 0.00025
